From US7244563B2, “Genes for plant fatty acid modifying enzymes associated with conjugated double bond formation” (E. I. du Pont de Nemours and Company, priority 2002, dated 2007) come the findings set out here.

For one assay, the system named is soybean embryos. Nature of the assay: Fatty acid composition of transgenic soybean somatic embryos (GC, GC-MS). Type of assay: cell-based. How it is done: Gene fusions of the Impatiens balsamina or Momordica charantia cDNAs with the conglycinin promoter and phaseolin termination sequences in vector pKS67 were introduced into soybean embryos using the particle bombardment method of transformation. To induce somatic embryos, cotyledons, 3–5 mm in length dissected from surface sterilized, immature seeds of a soybean cultivar A2872 or JACK-910 were cultured in the light or dark at 26° C. on an appropriate agar medium for 6–10 weeks. Somatic embryos that produce secondary embryos were then excised and placed into a suitable liquid medium. After repeated selection for clusters of somatic embryos that multiplied as early, globular staged embryos, the suspensions were maintained as described below.
Soybean embryogenic suspension cultures were then transformed with the vector pKS67 containing the Impatiens or Momordica cDNA for fatty acid modifying enzymes associated with conjugated double synthesis by the method of particle gun bombardment (Klein et al. (1987) Nature (London) 327:70, U.S. Pat. No. 4,945,050). A DuPont Biolistic™ PDS1000/HE instrument (helium retrofit) was used for these transformations.
Five to seven days post bombardment, the liquid media was exchanged with fresh media, and eleven to twelve days post bombardment with fresh media containing […] hygromycin. This selective media was refreshed weekly. Seven to eight weeks post bombardment, green, transformed tissue was observed growing from untransformed, necrotic embryogenic clusters. Isolated green tissue was removed and inoculated into individual flasks to generate new, clonally propagated, transformed embryogenic suspension cultures. Each new line was treated as an independent transformation event. These suspensions were then subcultured and maintained as clusters of immature embryos.
Transgenic soybean embryos selected and maintained in this manner were analyzed for eleostearic acid and parinaric acid content using methods described in Example 4 (Table 1). Individual embryos expressing either the Impatiens or Momordica fatty acid modifying enzyme for conjugated double bond synthesis were homogenized in 1% (w/v) sodium methoxide in methanol. Fatty acid methyl esters resulting from this transesterification step were analyzed by both GC and GC-MS as described in Example 4. Methyl esters of eleostearic and parinaric acids were identified in transgenic soybean extracts by comparison of retention times and mass spectra with those of fatty acid methyl esters prepared from seeds of Impatiens balsamina and Momordica charantia. […] In soybean embryos expressing the Momordica enzyme, eleostearic acid was detected principally as α-eleostearic acid with lesser amounts of at least two other cis-trans isomers of eleostearic acid. […]

The test system of assay [1] is Tobacco (Nicotiana tabacum L. cv Xanthi) callus. Nature of the assay: Fatty acid analysis (GC, GC-MS) of transgenic tobacco callus expressing the cDNA. In kind it is cell-based. As to conditions: pBI121, 35S promoter, highest amount. The text has this: The cDNAs encoding fatty acid modifying enzymes associated with conjugated double bond synthesis in seeds of Impatiens balsamina and Momordica charantia were introduced into a plant expression vector designated pML63. Vector pML63 contains the uidA gene (which encodes the GUS enzyme) operably linked to the CaMV35S promoter and 3′ NOS sequence. pML63 is modified from pMH40 to produce a minimal 3′ NOS terminator fragment. pMH 40 is described in WO 98/16650 which was published on Apr. 23, 1998, the disclosure of which are hereby incorporated by reference. Using standard techniques familiar to those skilled in the art, the 770 base pair terminator sequence contained in pMH40 was replaced with a new 3′ NOS terminator sequence comprising nucleotides 1277 to 1556 of the sequence published by Depicker et al. (1982, J. Appl. Genet. 1:561–574). A chimeric gene was constructed comprising cDNAs encoding fatty acid modifying enzymes associated with conjugated double bond synthesis in seeds of Impatiens balsamina and Momordica charantia in sense orientation with respect to the cauliflower mosaic virus 35S promoter that is located 5′ to the cDNA fragment and termination sequences from the nopaline synthase (NOS) that are located 3′ to the cDNA fragment. The cDNAs for the Impatiens polypeptide was introduced in the NcoI and EcoRI sites of the vector pML63. The cDNA for the Momordica polypeptide was introduced into the NcoI and SmaI sites of the vector pML63. The NcoI and EcoRI sites flanking the Impatiens cDNA were generated by PCR amplification of the cDNAs using oligonucleotide primers that contained these restriction sites (SEQ ID NO:7 and SEQ ID NO:8, for the sense and antisense oligonucleotides, respectively). PCR amplification was conducted using the Pfu DNA polymerase. The NcoI site flanking the 5′ end of the Momordica cDNA was generated by PCR amplification in a similar manner (SEQ ID NO:9 and SEQ ID NO:10). The 3′ end of the PCR-generated Momordica cDNA was blunt-ended which allowed for cloning into the SmaI site of the vector pML63. The resulting fusions of the cauliflower mosaic virus 35S promoter with the cDNAs encoding fatty acid modifying enzymes associated with conjugated double bond synthesis in seeds of Impatiens balsamina or Momordica charantia and NOS termination sequences were released from the vector pML63 by digestion with XbaI. The resulting XbaI fragment was ligated into the corresponding site of the binary vector pZS199 The vector pZS199 contains the following elements: (1) the chimeric gene nopaline synthase/neomycin phosphotransferase as a selectable marker for transformed plant cells (Brevan et al. (1984) Nature 304:184–186), (2) the left and right borders of the T-DNA of the Ti plasmid (Brevan et al. (1984) Nucl. Acids Res. 12:8711–8720), (3) the E. coli lacZ-complementing segment (Vieria and Messing (1982) Gene 19:259–267) with unique restriction endonuclease sites for EcoRI, KpnI, BamHI, XbaI and SalI, (4) the bacterial replication origin from the Pseudomonas plasmid pVS1 (Itoh et al. (1984) Plasmid 11:206–220), and (5) the bacterial neomycin phosphotransferase gene from Tn5 (Berg et al. (1975) Proc. Natl. Acad. Sci. U.S.A. 72:3628–3632) as a selectable marker for transformed A. tumefaciens. The nopaline synthase promoter in the plant selectable marker was replaced by the 35S promoter (Odell et al. (1985) Nature, 313:810–813) by a standard restriction endonuclease digestion and ligation strategy.
Gene fusions of the Impatiens balsamina or Momordica charantia cDNAs with the cauliflower mosaic virus 35S promoter and the NOS termination sequences in vector pZS199 were introduced into Agrobacterium tumefaciens strain LBA4404. […]

Where [2] appears, read: soybean embryos, six independent transgenic lines (n = 6), ± standard deviation, % of total oil weight.

B1: ChrFad2: Chrysobalanus icaco fatty acid modifying enzyme associated with conjugated double bond synthesis, SEQ ID NO:20, cDNA SEQ ID NO:19 (protein)
chain: MGAGGQKTFPRLEEEEKQQQAAAAGFKRIPTTKPPFTLSDLKKAIPPHCFQRSLLRSFSYVFIDLTIISILGYIGATYICLLPPPSKYLAWLLYWAVQGCFFTGAWALAHDCGHHAFSDYQWIDDAVGMVLHSTLMVPYFSFKYSHRRHHSNINSLERDEVFVPRPKSKIKWYCSKYLNNPLGRVLTLAVTLILGWPMYLALNASGRDYDRFVSHFYPYGPIYNDRERLQIYISDAGIFIVSYVLYQVALAKGLPWLICIYGVPLFVNNALVVTITYLQHTHPELPRYGNSEWDWFKGTLATVDRDMGPLLNWATHHVSDTHYVHHLFSTMPHYHGVEATKAVKPMLGEYYRFDPTPLYKALWREAKECLFVEPDSKSPGVFWFDKF
modifications: Chrysobalanus icaco
Regarding B1, in the assay on soybean embryos (soybean embryos, single embryos from six independent transgenic lines (n = 6), ± standard deviation, % of total oil weight), the “16:0” value is 7.0 ± 1.4 Weight %. In the assay with soybean embryos (setting [2]), the “18:0” value is listed as 1.9 ± 0.6 Weight %, the “18:1” value was determined as 37.6 ± 6.2 Weight %, the “18:2” value was 28.1 ± 3.8 Weight % and the “18:3” value is given as 6.0 ± 2.5 Weight %. Besides, the α-Parinaric in the assay on soybean embryos (setting [2]) was determined as 0.9 ± 0.3 Weight %. The molecule further showed an Eleostearic with soybean embryos (soybean embryos, six independent transgenic lines (n = 6), includes cis-trans isomers of α-eleostearic acid (<1.0 wt %)) of 16.4 ± 2.4 Weight %. In addition, the Other in the assay with soybean embryos (soybean embryos, six independent transgenic lines (n = 6), primarily 20:0, 20:1, 22:0, and 22:1) is reported as <2.1 Weight %. Further, the “α-paranaric acid of the total fatty acids” value in the assay with soybean embryos (soybean somatic embryos, β-conglycinin promoter) is “approximately 1 wt %”. Further, the “α-eleostearic acid of the total fatty acids” value with soybean embryos (soybean somatic embryos, β-conglycinin promoter, highest amount) is on record as ≤ 21 wt %. Further, in assay [1], the “α-eleostearic acid of the total fatty acids of callus samples” value was ≤ 4.7 wt % and the “α-paranaric acid of the total fatty acids of callus samples” value was ≤ 0.4 wt %.
